# From paper PMC4075986
# Molecular target: chicken pectoral skeletal muscle actin (F-actin) (chicken) (UniProt P68139)
# Assay: co-sedimentation
substance,measurement,value
rat tropomyosin Tm5a (natural protein),Ka,1.7e+06 M⁻¹
